Reference: publication PMC4678814 (Nucleic Acids Research, 2015)
Each block holds one molecule with its values, some of them ahead of it.

Experiments:
[1] = biological target: GST-tagged ChYtm1 (Chaetomium thermophilum) (UniProt G0SFB5); experiment: BLI
[2] = biological target: T1, 6xHis-tagged ChYtm1 (Ytm1 from Chaetomium thermophilum) (Chaetomium thermophilum, UniProt G0SFB5 1-495); experiment: ITC
T1 sequence (looked up): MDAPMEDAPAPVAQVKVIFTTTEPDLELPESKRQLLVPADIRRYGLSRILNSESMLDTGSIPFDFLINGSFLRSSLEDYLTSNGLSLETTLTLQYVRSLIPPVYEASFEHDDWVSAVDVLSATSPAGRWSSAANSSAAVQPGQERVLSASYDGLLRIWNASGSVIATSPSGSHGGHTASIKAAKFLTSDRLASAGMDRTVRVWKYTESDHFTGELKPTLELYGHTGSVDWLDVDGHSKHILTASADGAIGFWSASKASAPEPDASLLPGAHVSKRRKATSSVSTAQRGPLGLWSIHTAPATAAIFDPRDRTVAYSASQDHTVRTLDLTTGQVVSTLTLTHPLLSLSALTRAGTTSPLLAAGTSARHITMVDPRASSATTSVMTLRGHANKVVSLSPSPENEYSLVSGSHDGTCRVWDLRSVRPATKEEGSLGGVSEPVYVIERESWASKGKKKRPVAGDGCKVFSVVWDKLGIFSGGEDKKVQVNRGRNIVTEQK

Kd [1]: 7 nM
Molecule: ChErb1 R486A mutant (from UniProt G0SCK6 1-801) (natural protein)

fold loss of affinity (KD) against the ChErb1-ChYtm1 interaction [1]: 100 fold
Molecule: 6xHis-ChErb1[R486E], full-length (from UniProt G0SCK6 1-801) (natural protein)

Kd [2]: ~9 nM
B1: 6xHis-ChErb1_(432–801) (β-propeller domain of ChErb1) (domain or fragment, Chaetomium thermophilum, UniProt G0SCK6 432-801, looked up)
chain: LPSPDELKPFPTVQQTIFRGHEGRVRSVAIDPTGVALATGGDDGTVRVWELLTGRQVWSVKLNGDEAVNTVRWRPTKDTFILAAAAGEDIFLMIPTHPSVTPALDQASRDILNAGFGHATNGKQQANLPPGKEPPGKWARPGTRLEDEGVLLRITVRSTIKAISWHRRGDHFATVSPSGQRSSVAIHTLSKHLTQIPFRKLNGLAQTASFHPLRPLFFVATQRSIRCYDLQKLELVKIVQPGAKWISSFDVHPGGDNLVVGSYDKRLLWHDLDLSNRPYKTMRFHTEAIRAVRFHKGGLPLFADASDDGSLQIFHGKVPNDQLENPTIVPVKMLKGHKVVNKLGVLDIDWHPREPWCVSAGADGTARLWM
